Source: patent US12679878B2, “CRF2 receptor agonists and their use in therapy” (SANOFI, priority 2020, dated 2026)
Starred links: 1 amine or outer side, 2 acyl side, 3 side chain; linkers in the order of their positions; H or OH if unused. Non-standard residues stand in square brackets, D forms with d. Groups on a side chain read outwards from the residue. No end group written: not given here. *: point of attachment. C18 diacid = O=C(O)CCCCCCCCCCCCCCCCC(=O)*; γGlu = O=C(O)[C@H](CCC(=O)[*:2])N[*:1]; Palmitoyl = CCCCCCCCCCCCCCCC(=O)*; Aib = CC(C)(N)C(=O)O

T1: anti-target CRF1R receptor (UniProt P34998 24-415, limits assumed)
T1 sequence (looked up): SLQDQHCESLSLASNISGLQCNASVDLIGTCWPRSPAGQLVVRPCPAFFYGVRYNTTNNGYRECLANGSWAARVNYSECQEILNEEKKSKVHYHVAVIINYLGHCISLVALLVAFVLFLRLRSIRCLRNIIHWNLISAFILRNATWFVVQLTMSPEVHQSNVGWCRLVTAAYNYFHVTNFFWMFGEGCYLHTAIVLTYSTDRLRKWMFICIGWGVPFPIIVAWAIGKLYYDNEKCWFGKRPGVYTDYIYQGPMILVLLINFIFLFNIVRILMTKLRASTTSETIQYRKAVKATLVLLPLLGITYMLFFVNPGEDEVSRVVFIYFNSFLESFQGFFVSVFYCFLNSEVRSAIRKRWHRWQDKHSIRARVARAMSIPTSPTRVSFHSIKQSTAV

B1: peptide of SEQ ID NO: 8 (peptide)
peptide: FTLSLDVPTKIK([γGlu-Palmitoyl])QKLLKQEKQKKQRQKAKTAAQILAQV-NH2
modifications: N-terminus assumed
SMILES: CCCCCCCCCCCCCCCC(=O)N[C@@H](CCC(=O)NCCCC[C@H](NC(=O)[C@@H](NC(=O)[C@H](CCCCN)NC(=O)[C@@H](NC(=O)[C@@H]1CCCN1C(=O)[C@@H](NC(=O)[C@H](CC(=O)O)NC(=O)[C@H](CC(C)C)NC(=O)[C@H](CO)NC(=O)[C@H](CC(C)C)NC(=O)[C@@H](NC(=O)[C@@H](N)Cc1ccccc1)[C@@H](C)O)C(C)C)[C@@H](C)O)[C@@H](C)CC)C(=O)N[C@@H](CCC(N)=O)C(=O)N[C@@H](CCCCN)C(=O)N[C@@H](CC(C)C)C(=O)N[C@@H](CC(C)C)C(=O)N[C@@H](CCCCN)C(=O)N[C@@H](CCC(N)=O)C(=O)N[C@@H](CCC(=O)O)C(=O)N[C@@H](CCCCN)C(=O)N[C@@H](CCC(N)=O)C(=O)N[C@@H](CCCCN)C(=O)N[C@@H](CCCCN)C(=O)N[C@@H](CCC(N)=O)C(=O)N[C@@H](CCCNC(=N)N)C(=O)N[C@@H](CCC(N)=O)C(=O)N[C@@H](CCCCN)C(=O)N[C@@H](C)C(=O)N[C@@H](CCCCN)C(=O)N[C@H](C(=O)N[C@@H](C)C(=O)N[C@@H](C)C(=O)N[C@@H](CCC(N)=O)C(=O)N[C@H](C(=O)N[C@@H](CC(C)C)C(=O)N[C@@H](C)C(=O)N[C@@H](CCC(N)=O)C(=O)N[C@H](C(N)=O)C(C)C)[C@@H](C)CC)[C@@H](C)O)C(=O)O
B2: peptide of SEQ ID NO: 11 (peptide)
peptide: FTLSLDVPTKIK([γGlu-Palmitoyl])QKLLKQEKQKKQRQKAKTNAQILAQV-NH2
modifications: N-terminus assumed
SMILES: CCCCCCCCCCCCCCCC(=O)N[C@@H](CCC(=O)NCCCC[C@H](NC(=O)[C@@H](NC(=O)[C@H](CCCCN)NC(=O)[C@@H](NC(=O)[C@@H]1CCCN1C(=O)[C@@H](NC(=O)[C@H](CC(=O)O)NC(=O)[C@H](CC(C)C)NC(=O)[C@H](CO)NC(=O)[C@H](CC(C)C)NC(=O)[C@@H](NC(=O)[C@@H](N)Cc1ccccc1)[C@@H](C)O)C(C)C)[C@@H](C)O)[C@@H](C)CC)C(=O)N[C@@H](CCC(N)=O)C(=O)N[C@@H](CCCCN)C(=O)N[C@@H](CC(C)C)C(=O)N[C@@H](CC(C)C)C(=O)N[C@@H](CCCCN)C(=O)N[C@@H](CCC(N)=O)C(=O)N[C@@H](CCC(=O)O)C(=O)N[C@@H](CCCCN)C(=O)N[C@@H](CCC(N)=O)C(=O)N[C@@H](CCCCN)C(=O)N[C@@H](CCCCN)C(=O)N[C@@H](CCC(N)=O)C(=O)N[C@@H](CCCNC(=N)N)C(=O)N[C@@H](CCC(N)=O)C(=O)N[C@@H](CCCCN)C(=O)N[C@@H](C)C(=O)N[C@@H](CCCCN)C(=O)N[C@H](C(=O)N[C@@H](CC(N)=O)C(=O)N[C@@H](C)C(=O)N[C@@H](CCC(N)=O)C(=O)N[C@H](C(=O)N[C@@H](CC(C)C)C(=O)N[C@@H](C)C(=O)N[C@@H](CCC(N)=O)C(=O)N[C@H](C(N)=O)C(C)C)[C@@H](C)CC)[C@@H](C)O)C(=O)O
B3: peptide of SEQ ID NO: 183 (peptide)
peptide: IVLSLD[dV]PIKLK(C18 diacid)QILLKQARQK[Aib]QRAQAEKNKRILERV-NH2
modifications: N-terminus assumed
SMILES: CC[C@H](C)[C@H](N)C(=O)N[C@H](C(=O)N[C@@H](CC(C)C)C(=O)N[C@@H](CO)C(=O)N[C@@H](CC(C)C)C(=O)N[C@@H](CC(=O)O)C(=O)N[C@@H](C(=O)N1CCC[C@H]1C(=O)N[C@H](C(=O)N[C@@H](CCCCN)C(=O)N[C@@H](CC(C)C)C(=O)N[C@@H](CCCCNC(=O)CCCCCCCCCCCCCCCCC(=O)O)C(=O)N[C@@H](CCC(N)=O)C(=O)N[C@H](C(=O)N[C@@H](CC(C)C)C(=O)N[C@@H](CC(C)C)C(=O)N[C@@H](CCCCN)C(=O)N[C@@H](CCC(N)=O)C(=O)N[C@@H](C)C(=O)N[C@@H](CCCNC(=N)N)C(=O)N[C@@H](CCC(N)=O)C(=O)N[C@@H](CCCCN)C(=O)NC(C)(C)C(=O)N[C@@H](CCC(N)=O)C(=O)N[C@@H](CCCNC(=N)N)C(=O)N[C@@H](C)C(=O)N[C@@H](CCC(N)=O)C(=O)N[C@@H](C)C(=O)N[C@@H](CCC(=O)O)C(=O)N[C@@H](CCCCN)C(=O)N[C@@H](CC(N)=O)C(=O)N[C@@H](CCCCN)C(=O)N[C@@H](CCCNC(=N)N)C(=O)N[C@H](C(=O)N[C@@H](CC(C)C)C(=O)N[C@@H](CCC(=O)O)C(=O)N[C@@H](CCCNC(=N)N)C(=O)N[C@H](C(N)=O)C(C)C)[C@@H](C)CC)[C@@H](C)CC)[C@@H](C)CC)C(C)C)C(C)C
B4: peptide of SEQ ID NO: 184 (peptide)
peptide: IVLSLD[dV]PIKLK(C18 diacid)QILLKQERQKKQRQQAEKNKQILAQV-NH2
modifications: N-terminus assumed
SMILES: CC[C@H](C)[C@H](N)C(=O)N[C@H](C(=O)N[C@@H](CC(C)C)C(=O)N[C@@H](CO)C(=O)N[C@@H](CC(C)C)C(=O)N[C@@H](CC(=O)O)C(=O)N[C@@H](C(=O)N1CCC[C@H]1C(=O)N[C@H](C(=O)N[C@@H](CCCCN)C(=O)N[C@@H](CC(C)C)C(=O)N[C@@H](CCCCNC(=O)CCCCCCCCCCCCCCCCC(=O)O)C(=O)N[C@@H](CCC(N)=O)C(=O)N[C@H](C(=O)N[C@@H](CC(C)C)C(=O)N[C@@H](CC(C)C)C(=O)N[C@@H](CCCCN)C(=O)N[C@@H](CCC(N)=O)C(=O)N[C@@H](CCC(=O)O)C(=O)N[C@@H](CCCNC(=N)N)C(=O)N[C@@H](CCC(N)=O)C(=O)N[C@@H](CCCCN)C(=O)N[C@@H](CCCCN)C(=O)N[C@@H](CCC(N)=O)C(=O)N[C@@H](CCCNC(=N)N)C(=O)N[C@@H](CCC(N)=O)C(=O)N[C@@H](CCC(N)=O)C(=O)N[C@@H](C)C(=O)N[C@@H](CCC(=O)O)C(=O)N[C@@H](CCCCN)C(=O)N[C@@H](CC(N)=O)C(=O)N[C@@H](CCCCN)C(=O)N[C@@H](CCC(N)=O)C(=O)N[C@H](C(=O)N[C@@H](CC(C)C)C(=O)N[C@@H](C)C(=O)N[C@@H](CCC(N)=O)C(=O)N[C@H](C(N)=O)C(C)C)[C@@H](C)CC)[C@@H](C)CC)[C@@H](C)CC)C(C)C)C(C)C
B5: peptide of SEQ ID NO: 226 (peptide)
peptide: IVLSLD[dV]PIGLK([γGlu-Palmitoyl])QKLLKQQRQRKERQQAEKNKRILERV-NH2
modifications: N-terminus assumed
SMILES: CCCCCCCCCCCCCCCC(=O)N[C@@H](CCC(=O)NCCCC[C@H](NC(=O)[C@H](CC(C)C)NC(=O)CNC(=O)[C@@H](NC(=O)[C@@H]1CCCN1C(=O)[C@H](NC(=O)[C@H](CC(=O)O)NC(=O)[C@H](CC(C)C)NC(=O)[C@H](CO)NC(=O)[C@H](CC(C)C)NC(=O)[C@@H](NC(=O)[C@@H](N)[C@@H](C)CC)C(C)C)C(C)C)[C@@H](C)CC)C(=O)N[C@@H](CCC(N)=O)C(=O)N[C@@H](CCCCN)C(=O)N[C@@H](CC(C)C)C(=O)N[C@@H](CC(C)C)C(=O)N[C@@H](CCCCN)C(=O)N[C@@H](CCC(N)=O)C(=O)N[C@@H](CCC(N)=O)C(=O)N[C@@H](CCCNC(=N)N)C(=O)N[C@@H](CCC(N)=O)C(=O)N[C@@H](CCCNC(=N)N)C(=O)N[C@@H](CCCCN)C(=O)N[C@@H](CCC(=O)O)C(=O)N[C@@H](CCCNC(=N)N)C(=O)N[C@@H](CCC(N)=O)C(=O)N[C@@H](CCC(N)=O)C(=O)N[C@@H](C)C(=O)N[C@@H](CCC(=O)O)C(=O)N[C@@H](CCCCN)C(=O)N[C@@H](CC(N)=O)C(=O)N[C@@H](CCCCN)C(=O)N[C@@H](CCCNC(=N)N)C(=O)N[C@H](C(=O)N[C@@H](CC(C)C)C(=O)N[C@@H](CCC(=O)O)C(=O)N[C@@H](CCCNC(=N)N)C(=O)N[C@H](C(N)=O)C(C)C)[C@@H](C)CC)C(=O)O
B6: peptide of SEQ ID NO: 227 (peptide)
peptide: IVLSLD[dV]PIKLK([γGlu-Palmitoyl])QKLLKQQRQRKERQQAEKNKRILERV-NH2
modifications: N-terminus assumed
SMILES: CCCCCCCCCCCCCCCC(=O)N[C@@H](CCC(=O)NCCCC[C@H](NC(=O)[C@H](CC(C)C)NC(=O)[C@H](CCCCN)NC(=O)[C@@H](NC(=O)[C@@H]1CCCN1C(=O)[C@H](NC(=O)[C@H](CC(=O)O)NC(=O)[C@H](CC(C)C)NC(=O)[C@H](CO)NC(=O)[C@H](CC(C)C)NC(=O)[C@@H](NC(=O)[C@@H](N)[C@@H](C)CC)C(C)C)C(C)C)[C@@H](C)CC)C(=O)N[C@@H](CCC(N)=O)C(=O)N[C@@H](CCCCN)C(=O)N[C@@H](CC(C)C)C(=O)N[C@@H](CC(C)C)C(=O)N[C@@H](CCCCN)C(=O)N[C@@H](CCC(N)=O)C(=O)N[C@@H](CCC(N)=O)C(=O)N[C@@H](CCCNC(=N)N)C(=O)N[C@@H](CCC(N)=O)C(=O)N[C@@H](CCCNC(=N)N)C(=O)N[C@@H](CCCCN)C(=O)N[C@@H](CCC(=O)O)C(=O)N[C@@H](CCCNC(=N)N)C(=O)N[C@@H](CCC(N)=O)C(=O)N[C@@H](CCC(N)=O)C(=O)N[C@@H](C)C(=O)N[C@@H](CCC(=O)O)C(=O)N[C@@H](CCCCN)C(=O)N[C@@H](CC(N)=O)C(=O)N[C@@H](CCCCN)C(=O)N[C@@H](CCCNC(=N)N)C(=O)N[C@H](C(=O)N[C@@H](CC(C)C)C(=O)N[C@@H](CCC(=O)O)C(=O)N[C@@H](CCCNC(=N)N)C(=O)N[C@H](C(N)=O)C(C)C)[C@@H](C)CC)C(=O)O

These binders were tested against T1, anti-target CRF1R receptor (assay: cell-based or functional assay).

B1 and B2 cannot be ordered by “EC50[nM] 0% HSA (cAMP, CRF1R-overexpression CHO cells)” value: over 1000 nM for the first, over 1000 nM for the second.

Compared with B1, B2 is lower in “Emax (%) (cAMP, CRF1R-overexpression CHO cells)” value: 16% for the first, 12.7% for the second.

What follows are binders tested against rat CRF2R α receptor (rat, UniProt P47866 20-411) (assay: cell-based or functional assay).
rat CRF2R α receptor, sequence (P47866 20-411): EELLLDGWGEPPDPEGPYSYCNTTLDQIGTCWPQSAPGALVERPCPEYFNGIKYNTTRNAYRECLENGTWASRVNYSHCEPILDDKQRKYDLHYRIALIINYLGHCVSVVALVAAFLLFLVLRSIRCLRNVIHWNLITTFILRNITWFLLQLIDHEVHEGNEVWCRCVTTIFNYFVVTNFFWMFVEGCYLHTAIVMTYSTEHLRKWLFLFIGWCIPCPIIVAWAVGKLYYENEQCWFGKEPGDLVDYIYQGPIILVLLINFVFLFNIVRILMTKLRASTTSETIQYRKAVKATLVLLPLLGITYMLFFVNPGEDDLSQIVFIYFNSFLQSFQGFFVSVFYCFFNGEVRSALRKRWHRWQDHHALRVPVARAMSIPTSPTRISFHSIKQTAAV

Compared with B1, B2 is 11-fold lower in “EC50 [nM], 0% HSA (cAMP, A7R5 cells)” value: 0.11 nM for the first, 0.01 nM for the second.

Going from B3 to B4, the “EC50 [nM], 0% HSA (cAMP, A7R5 cells)” value falls from 1.12 nM to 0.42 nM (2.7-fold).

Going from IVLSLD[dV]PTKLK([γGlu-Palmitoyl])QKLLKQERQRKERE[Aib]AEKNKRILERV-NH2 [peptide of SEQ ID NO: 225] to B5, the “EC50 [nM], 0% HSA (cAMP, A7R5 cells)” value falls from 0.12 nM to 0.04 nM (3-fold).

For B6, the “EC50 [nM], 0% HSA (cAMP, A7R5 cells)” value was 0.61 nM.
